This series addresses T1, CasΦ.12 (in cells) (Unknown).
T1 chain: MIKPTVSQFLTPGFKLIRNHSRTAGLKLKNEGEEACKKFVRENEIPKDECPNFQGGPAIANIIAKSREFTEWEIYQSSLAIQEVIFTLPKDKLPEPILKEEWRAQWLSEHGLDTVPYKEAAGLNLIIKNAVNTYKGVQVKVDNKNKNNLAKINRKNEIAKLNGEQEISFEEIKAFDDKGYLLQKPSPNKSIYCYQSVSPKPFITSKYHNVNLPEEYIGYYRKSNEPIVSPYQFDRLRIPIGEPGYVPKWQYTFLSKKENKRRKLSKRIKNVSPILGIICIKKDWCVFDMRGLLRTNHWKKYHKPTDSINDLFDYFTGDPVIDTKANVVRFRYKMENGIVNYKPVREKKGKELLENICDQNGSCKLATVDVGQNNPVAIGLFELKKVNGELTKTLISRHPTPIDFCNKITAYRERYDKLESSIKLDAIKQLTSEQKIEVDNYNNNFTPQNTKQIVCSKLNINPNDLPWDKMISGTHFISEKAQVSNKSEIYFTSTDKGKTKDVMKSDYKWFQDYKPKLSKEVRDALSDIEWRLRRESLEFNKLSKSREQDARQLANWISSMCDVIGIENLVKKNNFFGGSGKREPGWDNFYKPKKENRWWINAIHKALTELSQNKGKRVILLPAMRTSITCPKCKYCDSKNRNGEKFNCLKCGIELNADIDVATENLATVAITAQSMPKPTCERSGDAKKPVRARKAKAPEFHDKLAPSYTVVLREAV
The series is described as follows: cell_activity; T cells, RNP nucleofection; PAM NTTN. How it is done:
This example illustrates the ability of CasΦ RNP complexes to knockout multiple genes simultaneously. In this study, gRNAs targeting B2M, TRAC and PDCD1 (provided in Table 15) were incubated with CasΦ.12 (SEQ ID NO: 12) for 10 minutes at room temperature to form B2M, TRAC, and PDC1 targeting RNPs, respectively. The B2M targeting RNPs, TRAC targeting RNPs, PDCD1 targeting RNPs and combinations thereof were added to T cells. T cells were resuspended at 5×10⁵ cells/20 μL in Nucleofection P3 solution and an Amaxa 4D 96-well electroporation system with pulse code EH115 was used to nucleofect the cells. Immediately after nucleofection, 85 μl pre-warmed culture medium was added to each well. The cells were then left in the cuvette plate for 10 minutes before transfer to the culture plate. On Day 3, genomic DNA was extracted and sent for NGS sequencing and the % indel was measured with a positive % indel being indicative of % knockout. On Day 5, cells were harvested for flow cytometry and the % knockout was measured with fluorescently labeled antibodies to TRAC and B2M (antibody to PDCD1 unavailable). % indel results are presented in Table 16 and flow cytometry data presented in Table 17.

B1: TRAC gRNA R3042 ; TRAC target (ssRNA ; dsDNA)
RNA: CUUUCAAGACUAAUAGAUUGCUCCUUACGAGGAGACGAGUCUCUCAGCUGGUACAC
DNA 1: GAGTCTCTCAGCTGGTACAC
DNA 2: GTGTACCAGCTGAGAGACTC
As to B1, the activity is 77.6 % indel.

B2: PDCD1 gRNA R2925 ; PDCD1 target (ssRNA ; dsDNA)
RNA: CUUUCAAGACUAAUAGAUUGCUCCUUACGAGGAGACUAGCACCGCCCAGACGACUG
DNA 1: TAGCACCGCCCAGACGACTG
DNA 2: CAGTCGTCTGGGCGGTGCTA
With B2, the activity is 44.6 % indel.

B3: B2M gRNA R3132 ; B2M target (ssRNA ; dsDNA)
RNA: CUUUCAAGACUAAUAGAUUGCUCCUUACGAGGAGACAGCAAGGACUGGUCUUUCUA
DNA 1: AGCAAGGACTGGTCTTTCTA
DNA 2: TAGAAAGACCAGTCCTTGCT
Turning to B3, the activity came to 85.5 % indel.
